Measurements reported in patent US20040213780A1.
One block for each substance: values may come before it.

Assays:
Assay in all cases: cell-based or functional assay
[1] = target: purified Sp1 (Promega Corp.) (UniProt P08047)
[2] = target: Sp1 in human brain tissue (endogenous) (human) (UniProt P08047)
[3] = target: Sp1 in nuclear extracts of primary rat striatal neurons (endogenous) (rat) (UniProt Q01714)
Sequence of Sp1 in nuclear extracts of primary rat striatal neurons (endogenous) (rat) (Q01714 2-786 limits assumed): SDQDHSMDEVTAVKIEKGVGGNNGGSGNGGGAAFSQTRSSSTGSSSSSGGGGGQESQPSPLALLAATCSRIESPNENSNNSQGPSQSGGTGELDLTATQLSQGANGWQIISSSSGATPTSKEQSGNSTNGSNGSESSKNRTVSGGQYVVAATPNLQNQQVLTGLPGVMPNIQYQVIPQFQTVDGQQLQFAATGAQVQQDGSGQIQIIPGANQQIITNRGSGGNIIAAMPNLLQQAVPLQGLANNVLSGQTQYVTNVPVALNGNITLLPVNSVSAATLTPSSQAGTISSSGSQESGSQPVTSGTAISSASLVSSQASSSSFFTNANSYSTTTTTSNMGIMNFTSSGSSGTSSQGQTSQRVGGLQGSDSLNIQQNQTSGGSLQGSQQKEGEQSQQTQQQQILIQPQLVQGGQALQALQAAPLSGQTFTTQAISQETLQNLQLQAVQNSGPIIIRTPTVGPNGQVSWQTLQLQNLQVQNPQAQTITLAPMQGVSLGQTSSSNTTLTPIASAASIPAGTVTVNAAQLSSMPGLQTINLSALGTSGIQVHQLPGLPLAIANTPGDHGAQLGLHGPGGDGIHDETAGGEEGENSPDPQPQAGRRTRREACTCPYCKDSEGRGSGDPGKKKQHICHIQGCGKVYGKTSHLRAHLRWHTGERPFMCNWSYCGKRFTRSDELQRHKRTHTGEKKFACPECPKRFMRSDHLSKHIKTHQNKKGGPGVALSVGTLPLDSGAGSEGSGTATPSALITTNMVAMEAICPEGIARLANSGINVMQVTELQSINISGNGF

Sequence of purified Sp1 (Promega Corp.) (P08047 8-785 limits assumed): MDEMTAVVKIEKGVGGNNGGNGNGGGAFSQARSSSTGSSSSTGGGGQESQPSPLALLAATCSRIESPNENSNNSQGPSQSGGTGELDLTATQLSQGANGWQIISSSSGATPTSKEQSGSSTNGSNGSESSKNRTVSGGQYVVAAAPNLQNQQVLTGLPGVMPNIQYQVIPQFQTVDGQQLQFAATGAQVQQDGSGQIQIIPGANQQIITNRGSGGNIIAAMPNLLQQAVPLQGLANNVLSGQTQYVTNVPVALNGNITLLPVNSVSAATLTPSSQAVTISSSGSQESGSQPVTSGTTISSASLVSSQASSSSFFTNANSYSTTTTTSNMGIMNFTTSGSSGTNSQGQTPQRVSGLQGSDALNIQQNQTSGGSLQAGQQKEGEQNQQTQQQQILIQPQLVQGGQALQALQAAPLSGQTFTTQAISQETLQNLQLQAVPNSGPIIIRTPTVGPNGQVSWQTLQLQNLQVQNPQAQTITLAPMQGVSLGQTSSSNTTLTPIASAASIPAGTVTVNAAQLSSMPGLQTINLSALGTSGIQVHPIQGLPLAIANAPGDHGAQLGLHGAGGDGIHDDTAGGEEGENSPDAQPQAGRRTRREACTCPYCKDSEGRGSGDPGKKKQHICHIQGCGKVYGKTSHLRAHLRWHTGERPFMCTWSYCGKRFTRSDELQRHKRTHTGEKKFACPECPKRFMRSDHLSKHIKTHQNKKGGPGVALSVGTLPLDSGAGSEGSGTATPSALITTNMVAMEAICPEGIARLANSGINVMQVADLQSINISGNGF
Sequence of Sp1 in human brain tissue (endogenous) (human) (P08047 2-785 limits assumed): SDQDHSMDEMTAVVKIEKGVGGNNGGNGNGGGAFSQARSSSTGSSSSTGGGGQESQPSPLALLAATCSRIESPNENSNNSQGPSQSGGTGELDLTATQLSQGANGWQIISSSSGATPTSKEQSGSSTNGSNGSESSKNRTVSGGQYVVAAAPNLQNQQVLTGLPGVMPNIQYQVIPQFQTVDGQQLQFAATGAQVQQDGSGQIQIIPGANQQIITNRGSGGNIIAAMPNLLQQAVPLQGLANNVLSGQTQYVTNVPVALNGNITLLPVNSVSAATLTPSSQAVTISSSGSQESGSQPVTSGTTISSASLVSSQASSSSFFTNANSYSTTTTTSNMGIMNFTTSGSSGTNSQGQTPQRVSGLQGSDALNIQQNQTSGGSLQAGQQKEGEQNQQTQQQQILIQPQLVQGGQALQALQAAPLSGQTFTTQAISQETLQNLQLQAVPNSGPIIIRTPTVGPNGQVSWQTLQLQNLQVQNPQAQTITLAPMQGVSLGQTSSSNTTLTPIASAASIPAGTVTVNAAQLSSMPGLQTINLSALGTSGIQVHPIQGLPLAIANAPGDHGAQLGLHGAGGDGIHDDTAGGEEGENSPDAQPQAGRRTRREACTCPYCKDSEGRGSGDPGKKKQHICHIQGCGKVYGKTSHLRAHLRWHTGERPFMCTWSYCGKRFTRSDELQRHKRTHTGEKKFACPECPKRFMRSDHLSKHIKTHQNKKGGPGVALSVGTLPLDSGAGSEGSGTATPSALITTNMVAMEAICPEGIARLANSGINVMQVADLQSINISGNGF

reduction in Sp1 binding to a labeled consensus Sp1 site (EMSA with purified proteins) [1]: 20%
Substance: glutathione S-transferase (GST)-huntingtin fusion protein with 20 glutamines (from UniProt P42858 1-88)

inhibition of Sp1 binding to a labeled consensus Sp1 site (EMSA with purified proteins) [1]: 70%
Substance: glutathione S-transferase (GST)-huntingtin fusion protein with 51 glutamines (from UniProt P42858 1-88)

decrease of Sp1 binding to its D2 binding site (EMSA, nuclear extracts of caudate, grade 1 HD brain against control brain) [2]: 39%
decrease of Sp1 binding to its D2 binding site (EMSA, nuclear extracts of caudate, grade 4 HD brain against control brain) [2]: 48%
Substance: huntingtin in human HD brain tissue (endogenous) (from UniProt P42858 1-3142)

inhibition of Sp1 binding to a labeled D2 promoter fragment (EMSA, nuclear extracts of transfected striatal cells) [3]: 55%
Substance: mutant full-length huntingtin with 75 glutamines (HttQ75), P42858 1-3142
